Paper PMC4609988 (Scientific Reports, 2015)

Tests used:
[1] = molecular target: T1, Fc-Ang1 (human); test: non-reducing SDS-PAGE; proteins taken from the media of transfected HEK293 cells with streptactin sepharose, SDS-PAGE under non-reduced (NR) and reduced (R) conditions, immunoblot with anti-Ang1 antibody; disulfide-linked oligomers; details: both partners purified
T1 chain: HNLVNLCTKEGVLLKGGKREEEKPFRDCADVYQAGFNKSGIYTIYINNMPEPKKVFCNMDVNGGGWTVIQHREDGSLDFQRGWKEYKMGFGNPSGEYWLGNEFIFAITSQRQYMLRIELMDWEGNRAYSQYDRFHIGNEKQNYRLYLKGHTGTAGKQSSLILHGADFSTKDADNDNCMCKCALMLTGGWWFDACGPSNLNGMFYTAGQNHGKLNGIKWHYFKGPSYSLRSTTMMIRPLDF

[2] = molecular target: T2, COMP-Ang1 ( | human); test: as above; details: both partners purified
T2 chain: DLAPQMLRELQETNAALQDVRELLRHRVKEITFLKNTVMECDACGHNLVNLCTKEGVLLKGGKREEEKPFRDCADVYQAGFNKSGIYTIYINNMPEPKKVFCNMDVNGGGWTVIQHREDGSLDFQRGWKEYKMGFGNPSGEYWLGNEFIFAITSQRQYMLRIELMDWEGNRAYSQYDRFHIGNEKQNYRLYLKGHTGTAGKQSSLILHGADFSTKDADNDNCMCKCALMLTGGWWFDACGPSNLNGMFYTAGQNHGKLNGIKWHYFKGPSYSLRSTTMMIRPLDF

[3] = molecular target: GCN-Ang1 ( | human); test: as above; details: both partners purified
[4] = molecular target: the molecule itself; test: as above
[5] = molecular target: T3, CMP-Ang1-2 (human); test: negative-stain transmission electron microscopy; purified proteins on carbon-coated copper grids, stained with 0.75% uranyl formate, 120 kV; details: both partners purified
T3 chain: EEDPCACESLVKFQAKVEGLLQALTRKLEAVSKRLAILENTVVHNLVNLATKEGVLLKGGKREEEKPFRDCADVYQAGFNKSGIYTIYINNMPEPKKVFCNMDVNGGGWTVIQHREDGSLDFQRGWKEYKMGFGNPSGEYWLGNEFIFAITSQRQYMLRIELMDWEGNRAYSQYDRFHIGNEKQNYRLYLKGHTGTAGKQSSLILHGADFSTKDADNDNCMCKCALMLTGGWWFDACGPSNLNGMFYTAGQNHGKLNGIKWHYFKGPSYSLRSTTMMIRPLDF

B1: Fc-Ang1 (Fc fusion)
chain: HNLVNLCTKEGVLLKGGKREEEKPFRDCADVYQAGFNKSGIYTIYINNMPEPKKVFCNMDVNGGGWTVIQHREDGSLDFQRGWKEYKMGFGNPSGEYWLGNEFIFAITSQRQYMLRIELMDWEGNRAYSQYDRFHIGNEKQNYRLYLKGHTGTAGKQSSLILHGADFSTKDADNDNCMCKCALMLTGGWWFDACGPSNLNGMFYTAGQNHGKLNGIKWHYFKGPSYSLRSTTMMIRPLDF
modifications: dimerized through N-terminal human IgG1 Fc; N-glycan at Ang1 Asn295 / dimerized through N-terminal human IgG1 Fc; N-glycan at Ang1 Asn295
stoichiometry N [1]: 2

B2: COMP-Ang1 (ligand)
chain: DLAPQMLRELQETNAALQDVRELLRHRVKEITFLKNTVMECDACGHNLVNLCTKEGVLLKGGKREEEKPFRDCADVYQAGFNKSGIYTIYINNMPEPKKVFCNMDVNGGGWTVIQHREDGSLDFQRGWKEYKMGFGNPSGEYWLGNEFIFAITSQRQYMLRIELMDWEGNRAYSQYDRFHIGNEKQNYRLYLKGHTGTAGKQSSLILHGADFSTKDADNDNCMCKCALMLTGGWWFDACGPSNLNGMFYTAGQNHGKLNGIKWHYFKGPSYSLRSTTMMIRPLDF
modifications: inter-chain disulfides; N-glycan at Ang1 Asn295 (construct Asn109) / inter-chain disulfides; N-glycan at Ang1 Asn295 (construct Asn109)
stoichiometry N [2]: 5

B3: GCN-Ang1 (ligand)
chain: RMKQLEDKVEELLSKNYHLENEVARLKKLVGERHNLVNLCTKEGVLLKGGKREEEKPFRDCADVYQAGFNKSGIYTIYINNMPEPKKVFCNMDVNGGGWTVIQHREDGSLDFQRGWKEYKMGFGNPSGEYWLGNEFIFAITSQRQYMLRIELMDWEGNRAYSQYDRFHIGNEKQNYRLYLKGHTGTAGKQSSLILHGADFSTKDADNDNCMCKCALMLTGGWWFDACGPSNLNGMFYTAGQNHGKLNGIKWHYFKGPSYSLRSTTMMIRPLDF
modifications: N-glycan at Ang1 Asn295 / N-glycan at Ang1 Asn295
stoichiometry N [3]: 2

B4: CMP-Ang1-3 (dimeric CMP-Ang1), produced in HEK293 cells (ligand)
chain: EEDPAACESLVKFQAKVEGLLQALTRKLEAVSKRLAILENTVVHNLVNLATKEGVLLKGGKREEEKPFRDCADVYQAGFNKSGIYTIYINNMPEPKKVFCNMDVNGGGWTVIQHREDGSLDFQRGWKEYKMGFGNPSGEYWLGNEFIFAITSQRQYMLRIELMDWEGNRAYSQYDRFHIGNEKQNYRLYLKGHTGTAGKQSSLILHGADFSTKDADNDNCMCKCALMLTGGWWFDACGPSNLNGMFYTAGQNHGKLNGIKWHYFKGPSYSLRSTTMMIRPLDF
modifications: N-glycan at asparagine 106 (complex tri- (~57%) or tetra- (~25%) antennary type glycans with one or two fucose residues)
stoichiometry N [4]: 2

B5: CMP-Ang1-2 (ligand)
chain: EEDPCACESLVKFQAKVEGLLQALTRKLEAVSKRLAILENTVVHNLVNLATKEGVLLKGGKREEEKPFRDCADVYQAGFNKSGIYTIYINNMPEPKKVFCNMDVNGGGWTVIQHREDGSLDFQRGWKEYKMGFGNPSGEYWLGNEFIFAITSQRQYMLRIELMDWEGNRAYSQYDRFHIGNEKQNYRLYLKGHTGTAGKQSSLILHGADFSTKDADNDNCMCKCALMLTGGWWFDACGPSNLNGMFYTAGQNHGKLNGIKWHYFKGPSYSLRSTTMMIRPLDF
modifications: inter-chain disulfides; N-glycan at Ang1 Asn295 (construct Asn106) / inter-chain disulfides; N-glycan at Ang1 Asn295 (construct Asn106)
stoichiometry N [5]: 3
